Measured values reported in US20100317566A1 (MOREHOUSE SCHOOL OF MEDICINE, published 2010).

Experiments:
Test in all cases: FLAG-peptide resin pulldown from Jurkat lysate, SDS-PAGE, mass spectrometry
[1] = target: T1, Vimentin (UniProt P08670 2-466)
T1 construct: Endogenous protein pulled down from Jurkat cell lysate, identified by mass spectrometry

[2] = target: T2, Mortalin/GRP75 (UniProt P38646 47-679)
T2 construct: Endogenous protein pulled down from Jurkat cell lysate, identified by mass spectrometry and by Western blot (~75 kDa); also called glucose-regulated protein 75

[3] = target: T3, HSC70 (UniProt P11142 2-646)
T3 construct: Endogenous protein pulled down from Jurkat cell lysate, identified by mass spectrometry

[4] = target: T4, GRP78 (UniProt P11021 19-654)
T4 construct: Endogenous protein pulled down from Jurkat cell lysate, identified by mass spectrometry

Measured: binding result

T3 sequence (P11142 2-646 limits assumed): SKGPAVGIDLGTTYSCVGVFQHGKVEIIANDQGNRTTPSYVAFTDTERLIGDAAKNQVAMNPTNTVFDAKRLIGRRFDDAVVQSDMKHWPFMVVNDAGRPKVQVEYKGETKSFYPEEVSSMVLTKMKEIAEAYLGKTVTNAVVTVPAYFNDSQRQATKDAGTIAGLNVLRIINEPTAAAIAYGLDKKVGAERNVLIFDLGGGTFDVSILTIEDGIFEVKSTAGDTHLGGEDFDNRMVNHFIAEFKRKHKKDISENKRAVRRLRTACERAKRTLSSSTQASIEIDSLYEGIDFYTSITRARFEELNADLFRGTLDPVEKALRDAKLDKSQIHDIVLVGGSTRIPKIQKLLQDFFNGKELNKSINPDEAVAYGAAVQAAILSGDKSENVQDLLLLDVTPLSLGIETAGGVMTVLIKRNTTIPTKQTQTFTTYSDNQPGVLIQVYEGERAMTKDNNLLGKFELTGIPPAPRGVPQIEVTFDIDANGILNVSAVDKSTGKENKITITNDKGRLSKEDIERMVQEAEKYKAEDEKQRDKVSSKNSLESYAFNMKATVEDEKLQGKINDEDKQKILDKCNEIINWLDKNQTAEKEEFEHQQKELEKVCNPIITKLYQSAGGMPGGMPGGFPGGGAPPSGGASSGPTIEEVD
T4 sequence (P11021 19-654 limits assumed): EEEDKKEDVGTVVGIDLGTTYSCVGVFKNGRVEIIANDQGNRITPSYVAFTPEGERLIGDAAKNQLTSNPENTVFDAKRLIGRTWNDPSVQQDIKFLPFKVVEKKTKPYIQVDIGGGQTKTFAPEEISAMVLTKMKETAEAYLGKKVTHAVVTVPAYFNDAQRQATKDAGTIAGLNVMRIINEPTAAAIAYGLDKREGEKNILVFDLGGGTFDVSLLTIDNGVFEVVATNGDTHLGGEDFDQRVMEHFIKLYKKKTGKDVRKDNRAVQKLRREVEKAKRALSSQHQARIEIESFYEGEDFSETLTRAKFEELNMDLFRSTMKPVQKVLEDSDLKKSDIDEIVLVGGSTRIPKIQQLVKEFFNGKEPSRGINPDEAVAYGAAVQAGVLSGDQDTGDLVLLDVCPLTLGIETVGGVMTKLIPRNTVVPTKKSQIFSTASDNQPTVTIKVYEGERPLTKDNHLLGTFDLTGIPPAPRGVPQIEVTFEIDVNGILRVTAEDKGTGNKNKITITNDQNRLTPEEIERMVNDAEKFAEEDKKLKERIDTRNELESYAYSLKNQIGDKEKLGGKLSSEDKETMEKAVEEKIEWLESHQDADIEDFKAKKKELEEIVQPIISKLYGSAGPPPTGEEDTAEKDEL
T1 sequence (P08670 2-466 limits assumed): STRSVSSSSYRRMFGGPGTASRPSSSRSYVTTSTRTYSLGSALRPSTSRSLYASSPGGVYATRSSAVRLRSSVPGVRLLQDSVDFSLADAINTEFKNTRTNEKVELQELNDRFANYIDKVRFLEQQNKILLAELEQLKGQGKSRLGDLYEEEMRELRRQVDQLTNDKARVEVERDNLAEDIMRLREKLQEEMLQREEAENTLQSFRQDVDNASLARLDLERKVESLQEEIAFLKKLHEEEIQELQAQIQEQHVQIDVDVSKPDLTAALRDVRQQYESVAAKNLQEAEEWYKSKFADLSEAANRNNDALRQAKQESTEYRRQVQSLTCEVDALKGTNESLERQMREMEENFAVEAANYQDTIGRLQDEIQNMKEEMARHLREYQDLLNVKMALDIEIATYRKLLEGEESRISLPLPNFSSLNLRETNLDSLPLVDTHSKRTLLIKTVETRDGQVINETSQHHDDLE
T2 sequence (P38646 47-679 limits assumed): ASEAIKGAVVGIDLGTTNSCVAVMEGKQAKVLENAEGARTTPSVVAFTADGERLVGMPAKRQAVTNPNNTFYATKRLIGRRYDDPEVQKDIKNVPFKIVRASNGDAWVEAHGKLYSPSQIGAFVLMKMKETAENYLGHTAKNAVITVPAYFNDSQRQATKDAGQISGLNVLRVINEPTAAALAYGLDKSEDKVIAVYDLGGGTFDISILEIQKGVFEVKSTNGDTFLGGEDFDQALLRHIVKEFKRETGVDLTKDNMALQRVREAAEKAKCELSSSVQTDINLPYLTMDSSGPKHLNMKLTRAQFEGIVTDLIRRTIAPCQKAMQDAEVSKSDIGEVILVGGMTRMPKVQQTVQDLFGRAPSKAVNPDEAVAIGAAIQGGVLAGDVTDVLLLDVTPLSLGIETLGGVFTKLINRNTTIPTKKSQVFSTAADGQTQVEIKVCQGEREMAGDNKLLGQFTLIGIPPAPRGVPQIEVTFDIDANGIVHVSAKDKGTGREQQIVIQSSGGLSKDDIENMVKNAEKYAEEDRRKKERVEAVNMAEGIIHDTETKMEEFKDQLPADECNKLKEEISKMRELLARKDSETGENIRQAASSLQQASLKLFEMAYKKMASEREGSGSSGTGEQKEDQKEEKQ

B1: HIV-1 NefSMRmt peptide (H2N-AGFPVAAAGFPVDYKDDDDK-OH) (peptide)
peptide: H-AGFPVAAAGFPVDYKDDDDK-OH
notes: Made commercially; also called SMRmut; HIV-1 NefSMRmut
no binding: all assays above
